From PMC8464078

What was measured:
[1] = target: Xenopus Rif1–CTD S2058A (Xenopus); assay: pull-down
[2] = target: Xenopus Rif1–CTD S2058D (Xenopus); assay: pull-down

## protein phosphatase 1 (PP1), gamma catalytic subunit (from UniProt P36874 1-323) (enzyme)
[1]
  PP1 bound, percent of wild type Rif1–CTD: 54%
[2]
  PP1 bound, percent of wild type Rif1–CTD: 9%
